For assay [1], the target named is VcCap5. Briefly: AUC; sedimentation velocity, apo VcCap5 at 0.8 mg/ml, 20 mM Tris-HCl pH 7.5, 200 mM NaCl, 55,000 rpm, 20 °C; c(s) fit in SEDFIT; monomer to dimer.
Assay [2] deals with VcCap5. Briefly: AUC; sedimentation velocity, VcCap5 with 3'2'-cGAMP, 0.8 mg/ml, 20 mM Tris-HCl pH 7.5, 200 mM NaCl, 55,000 rpm, 20 °C; c(s) fit in SEDFIT; dimer to tetramer.

As a reminder, the stoichiometry N is the number of molecules, sites or subunits per partner or assembly.

VcCap5 (enzyme): the stoichiometry N in assay [1] amounted to 2; in assay [2], 4.

Source of the values: publication PMC12804361.
